From patent publication US20230094463A1 (TRUEBINDING, published 2023)
Numbering of substitutions follows the chain as printed. Numbers in names are those of the source.

T1: Gal3 Peptide 1 (ADNFSLHDALSGSGNPNPQG) (human)
T1 peptide: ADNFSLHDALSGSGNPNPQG

T2: Gal3 Peptide 7 (AYPGAPGAYPGAPAPGVYPG) (human)
T2 peptide: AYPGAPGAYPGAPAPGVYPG

T3: Gal3 Peptide 6 (GAYPGQAPPGAYPGAPGAYP) (human)
T3 peptide: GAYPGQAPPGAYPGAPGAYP

B1: IMT006 (TB006) (antibody, V domains shown)
VH: QVQLVQSGAEVKKPGASVKVSCKASGYSFTNYYMHWVRQAPGQRLEWMGWIYPGSGNTNYNEKFQGRVTITADTSASTAYMELSSLRSEDTAVYYCSTAPGGFDVWGQGTTVTVSS
VL: DIVMTQTPLSLSVTPGQPASISCKSSKSLLHSDGITYLYWYLQKPGQSPQLLIYRMSNLASGVPDRFSGSGSGTDFTLKISRVEAEDVGVYYCAQMLEFPLTFGQGTKLEIK
notes: anti-Gal3 antibody
B2: 20D11.2C6 (antibody, V domains shown)
VH: EVQLQQSGPELVKPGASVKISCKASGYTFTDFYINWVKQSHGKSLEWIGDINPKNGGINYNPKFKIKATLTVDKSSSTSYMDLRGLTSEDSAVYYCTSGYGFPYWGQGTLVTVSA
VL: DIQMNQSPSSLSASLGDTITITCRASQNIYIWLSWYQQKPGNIPKLLIYKASNLHTGVPSRFSGSGSGTDFTLTISTLQPEDIATYFCLQGQSYPLTFGAGTKLEMK
B3: 15G7.2A7 (antibody, V domains shown)
VH: B2 VH with F32Y, I34M, K54N, I58T, P62Q, I66G, S79A, D82E, G85S
VL: B2 VL with T20S, Y30N, K45Q, T77S, F87Y, E105V
B4: 19B5.2E6 (antibody, V domains shown)
VH: QIQLVQSGPELKKPGETVKISCKASGYTFTTYAMSWVKQAPGKGLKWMGWINTYSGVPTYADDLKGRFAFSLETSASTAYLQINNLKNEDTATYFCARGPYAMDYWGQGTSVTVSS
VL: DIQMTQTTSSLSASLGDRVTISCSASQGINNYLNWYQQKPDGTVKLLIYYASSLHSGVPSRFSGSGSGTDYSLTISNLEPEDIATYYCQQYSQVPYTFGSGTKLEIK
B5: 20H5.A3 (antibody, V domains shown)
VH: B4 VH with T17S, T28A, A33G, K38Q, I51V, Y60C, L64F, K87R
VL: B4 VL with S22N, G28D, N30S, A51T, H55L, Y87F, Q93K, V94L, K103H
B6: 23H9.2E4 (antibody, V domains shown)
VH: B4 VH
VL: B4 VL
B7: 6H6.2D6 (antibody, V domains shown)
VH: B4 VH with A33G, G49A, L64F, K87T
VL: B4 VL with N30S, A51T, Q93E, V94L
B8: 13G4.2F8 (antibody, V domains shown)
VH: QVQLQQPGAELVKPGASVKLSCKASGYTFTSYWMHWVKQRPGQGLEWIGMIHPNSGSTDYNEKFKNKATLNVDKSSSTAYIQLSSLTSEDSAVYYCTRWGIYYYARDYWGQGTTLTVSS
VL: DIVMTQSQKFMSTSVGERVSITCKASQNVGTNVAWYQQKAGQSLELLIYGASNRHTGVPDRFTGSGSGTDFTLTITNVQSEDMTNYFCEQYSNFPLTFGAGTKLELK
B9: IMT001 (TB001) (antibody, V domains shown)
VH: QVQLVQSGSELKKPGASVKVSCKASGYTFTNYGMNWVRQAPGQGLKWMGWINTNTGEPTYVEEFTGRFVFSLETSVSTAYLQISSLKAEDTAVYFCAPYDNFFAYWGQGTTVTVSS
VL: DIVLTQSPLSLPVTPGEPASISCRSSKSLLYKDGKTYLNWFLQKPGQSPQLLIYLMSTHASGVPDRFSGSGSGTDFTLKISRVEAEDVGVYYCQQLVDYPLTFGGGTKLEIK
notes: anti-Gal3 antibody; also called IMT001-4
B10: F846C.1F5 (antibody, V domains shown)
VH: QIQLVQSGPELKKPGETVKISCKASGYTFTNYGMNWVKQAPGKGLKWMGWINTYTGEPSYADDFKGRFAFSLETSASTAYLQINNLKNEDMATYFCARWGGYDGDYYAMDYWGQGTSVTVSS
VL: NIMMTQSPSSLAVSAGEKVTMSCKSSQSVLYSSNQKNYLAWYQQKPGQSPKLLIYWASTRESGVPDRFTGSGSGTDFTLTISSVQPEDLAVYYCHQYLSSLTFGAGTKLELK
notes: also called 846.1F5

Legend:
[1] = target: T4, Human GAL3 protein (TrueBinding, QCB200349 / QCB200352; R&D Systems, 8259-GA) (human, UniProt P17931 2-250); assay: blocking ELISA (GAL3 coated; antibody + biotinylated ITGa3)
T4 construct: also called human galectin-3

[2] = target: T5, Human Galectin-3 protein (Acro Biosystems, GA3-H5129) (human, UniProt P17931 2-250); assay: SPR (Biacore T200), antibody captured, Galectin-3 as analyte
T5 construct: Bought protein; also called Gal3-ECD-His; Gal3-His; not shown: linker-spaced 6-histidine tag

[3] = target: T4, Human GAL3 protein (TrueBinding, …); assay: blocking ELISA (GAL3 coated; antibody + biotinylated ITGb1)
[4] = target: T5, Human Galectin-3 protein (Acro …); assay: ELISA, blocking of INSR binding to coated Gal3
[5] = target: T5, Human Galectin-3 protein (Acro …); assay: ELISA, blocking of INSR binding to coated Gal3; remark: listed apart in the source
[6] = target: T4, Human GAL3 protein (TrueBinding, …); assay: blocking ELISA (GAL3 coated; antibody + biotinylated ITGaV)
[7] = target: T4, Human GAL3 protein (TrueBinding, …); assay: blocking ELISA (GAL3 coated; antibody + biotinylated ITGb3)
[8] = target: T4, Human GAL3 protein (TrueBinding, …); assay: cell-based or functional assay
[9] = target: T5, Human Galectin-3 protein (Acro …); assay: blocking ELISA (Gal3 coated; antibody 3 µg/mL + INSR)
[10] = target: T5, Human Galectin-3 protein (Acro …); assay: SPR (Biacore T200; antibody captured via anti-Fc, Galectin-3 analyte, 1:1 fit)
[11] = target: T1, Gal3 Peptide 1 (ADNFSLHDALSGSGNPNPQG); assay: peptide ELISA (peptide coated; antibody hIgG4 [S228P], 5 µg/mL)
[12] = target: T2, Gal3 Peptide 7 (AYPGAPGAYPGAPAPGVYPG); assay: as above
[13] = target: T3, Gal3 Peptide 6 (GAYPGQAPPGAYPGAPGAYP); assay: as above
[14] = target: T3, Gal3 Peptide 6 (GAYPGQAPPGAYPGAPGAYP); assay: peptide ELISA: Gal3 peptide coated on the plate, antibody (hIgG4 S228P) at 5 µg/mL, anti-human IgG-HRP, A450 (Example 18)
[15] = target: T1, Gal3 Peptide 1 (ADNFSLHDALSGSGNPNPQG); assay: as above
[16] = target: T2, Gal3 Peptide 7 (AYPGAPGAYPGAPAPGVYPG); assay: as above
[17] = target: T1, Gal3 Peptide 1 (ADNFSLHDALSGSGNPNPQG); assay: peptide ELISA (peptide coated)
[18] = target: T2, Gal3 Peptide 7 (AYPGAPGAYPGAPAPGVYPG); assay: peptide ELISA (peptide coated)

| Binder | percent blockade of GAL3-ITGa3 interaction [1] | Kd [2] | percent blockade of GAL3-ITGb1 interaction [3] | IC50 (read off the curve) [4] | Gal3-INSR Blocking @ 3 µg/mL [5] | percent blockade of GAL3-ITGaV interaction [6] | percent blockade of GAL3-ITGb3 interaction [7] | inhibition of Jurkat T cell adhesion [8] | Gal3-INSR binding remaining, % of unblocked sample [9] | Kd [10] | binding result [11] | binding result [12] | binding result [13] | binding result [14] | binding result [15] | binding result [16] | binding result [17] | binding result [18] | reduction of Gal3-INSR binding (%) [9] |
| --- | --- | --- | --- | --- | --- | --- | --- | --- | --- | --- | --- | --- | --- | --- | --- | --- | --- | --- | --- |
| B1 | > 90% | 16.5 nM | > 90% | ~0.7 µg/mL | 100% | > 90% | > 90% | – | – | – | – | – | – | – | – | – | – | – | – |
| B2 | > 90% | 27.8 nM | – | – | 100% | > 90% | > 90% | > 90% | < 5% | – | – | – | – | – | – | – | – | – | – |
| B3 | – | 11.3 nM | – | – | 100% | – | – | – | – | 27.8 nM | – | – | – | – | – | – | – | – | – |
| B4 | > 90% | < 1 nM | – | – | 100% | > 90% | > 90% | – | < 5% | – | binds | binds | – | – | – | – | – | – | – |
| B5 | > 90% | 3.95 nM | – | ~0.5 µg/mL | 100% | > 90% | > 90% | – | < 5% | – | binds | binds | binds | – | – | – | – | – | – |
| B6 | > 90% | 4.26 nM | – | – | 100% | > 90% | > 90% | – | < 5% | – | – | – | – | binds | binds | binds | – | – | – |
| B7 | – | 4.86 nM | – | ~0.5 µg/mL | 100% | – | – | – | < 5% | – | – | – | – | – | – | – | binds | binds | – |
| B8 | < 35% | 2.53 nM | – | – | 11% | < 30% | < 10% | – | – | 18.4 nM | – | – | – | – | – | – | – | – | ≤ 30% |
| B9 | > 90% | 6.09 nM | > 90% | ~0.8 µg/mL | 100% | > 90% | > 90% | – | – | – | – | – | – | – | – | – | – | – | – |
| B10 | > 90% | – | > 90% | – | – | > 90% | > 90% | – | – | – | – | – | – | – | – | – | – | – | – |
